{
  "source": "the RNAGym collection of RNA variant scans (doi:10.1073/pnas.2313332121)",
  "parents": {"B1": {"name": "TPR 5TU (parent)", "chain": "GGAUCUUCUCGAUCUAACAAAAAAGACAAAUCUGCCACAAAGCUUGAGAGCAUCUUCGGAUGCAGAGGCGGCAGCCUUCGGUGGCGCGAUAGCGCCAACGUUCUCAACUAUGACACGCAAAACGCGUGCUCCGUUGAAUGGAGUUUAUCAUG"}},
  "note": "This sample holds only a part of the variants without activity.",
  "data": [
    {"variants_of": "B1", "experiment": "polymerase ribozyme fitness, log enrichment relative to wild type (log ratio); higher = more active; in vitro selection for triplet polymerase activity", "in_short": "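After PCR construction and transcription, each subunit's mutant library from a heterodimeric triplet polymerase ribozyme was annealed with a biotinylated primer, the partner subunit and triplets. Incubation was frozen, at −7 °C, and extended constructs were gel-excised, bound to streptavidin beads and amplified by RT-PCR, in one selection round done in triplicate. Fitness is the logarithm of a genotype's enrichment divided by that of the wild type, from inverse-variance-weighted replicate averages of Illumina-sequenced inputs and outputs. The base of the logarithm is 2, and genotypes needed ≥10 input reads and ≥1 read per output.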", "values": [
      {"variant": "GGAUCUUCUCGAUCUAACAAAAAAGACAAAUCUGCCACACAGCUUGAGAGCAUCUUCGGAUGCAGAGGCGGCAGCCUUCGGUGGCGCGUUAGCGCCAACGUUCUCAACUAUGACACGCAAAACGCGUGCUCCGUUGCAUGGAGUUUAUCAUG", "polymerase ribozyme fitness (log ratio)": -3.94},
      {"variant": "GGAUCUUCUCGAUCUAACAAAAAAGACCAAUCUGCCACAAAGCUUGAGAGCAUCUUCGGAUGCAGAGGCGGCAGCCUUCGGUGGCGCGAUAGCCCCAACGUUCUCAACUAUGACACGCAAAACGCGUGCUCCGUUGAAUGGAGUUUAUCAUG", "polymerase ribozyme fitness (log ratio)": -4.04},
      {"variant": "GGAUCUUCUCGAUCUUACAAAAAAGACAAAUCUGCCACAAAGCUUGAGAGCAUCUUCGGAUGCAGAGGCGGCAGCCUUCGGUGGCGCGAUAGCGCCAACGUUCUCAACUAUGACAAGCAAAACGCGUGCUCCGUUAAAUCGAGUUUAUCAUG", "polymerase ribozyme fitness (log ratio)": "≤ -4.2"},
      {"variant": "GGAUGUUCUCUAUCUAUCAAAAAAGACAAAUCUGCCACUAAGCUUGAGAGCAUCUUGGGAUGCAGAGGCGGCGGCCUUUGGUGGCGCGAUAGCGCCAACGUUCUCAACUAUGACACGCAAAACGCGUGCUCCGUUGAGUGCAGGUUAUCAUG", "polymerase ribozyme fitness (log ratio)": "≤ -4.2"},
      {"variant": "GGAUCUUCUCGAUCUCACAAAAAAGACAAAUAUGCCACAAUGCUUGAGAGCAUCUUCGGGUGCAGAGGCGGCAUCCUUCGGUGGCGCGAUAGGGCCAACGUUCUCAACUAUGACACGCAAAACGCGUGCUCCGUUGAAUGGAGUUUUUCAUG", "polymerase ribozyme fitness (log ratio)": "≤ -4.2"},
      {"variant": "GGAUCUUCUCGAUCUAACAAAAAAGACAAAUCUGCCACAAAGCUUGAGAGCAUGUUCAGAUGCAGAGGCGGCAGCCUGCGGUGGCGCGAUAGCGCCAACGUUCUCAAAUAUGACACGCAAAACGCUUGCUCCGUUGAAUGGAGUUUAUCAUG", "polymerase ribozyme fitness (log ratio)": "≤ -4.2"},
      {"variant": "GGAUCUUCUCAAUCUAACAAAAAAGACAAAUCUGCCACAAAGCUUGAGAGCAUCUUCGGAUGCAGAGGCGGCAGCCUUCGGUGGCGCGAUAGCGCCAACGUUCUCAACUAUGACACGCAAAACGCGUGCUCCGUUGCAUGGAGUUUAUUAUG", "polymerase ribozyme fitness (log ratio)": "≤ -4.2"},
      {"variant": "GGAUCUUCUCGAUCUAACAAAAAAGACAAAUCUGCCACAAAGCUUGAGAGCAUCUUCGGAUGCAGAGGCGGCAGCCUUCGGUGGCGCGAUACCGCCAACGUUCUCAACUAUGACACGCAAAAUGCGUGCUCCGUUGAAUGGAGUUUAUCAUG", "polymerase ribozyme fitness (log ratio)": -2.47},
      {"variant": "GGAUCUUCUCGAUCUAACAAAAAAGACAAACCUGCCACAAAGCUGCAGAGCAUCUUCGGAUGCAGAGGCGGCAGCCUUCGGUUGCGCGAUAGCCCCAACGUUCUCAACUAUGACUCGCCAAACGCGUGCUCCGUUGAAUGGUGUUUAUCUUG", "polymerase ribozyme fitness (log ratio)": "≤ -4.2"},
      {"variant": "GGAUCUUCUCGAUCUAACAAAAAAGACAAAUCUGUCACAAAGCUUGAGAGCAUCUUCGGAUGCAGAGGCGGCAGCCUUCGGUGGCGCGAUAGCGCCUACGUUCUCAACUAUGACACGCAAAACGCGUGCUCCGAUGAAUGGAGUUUAUCAUG", "polymerase ribozyme fitness (log ratio)": -3.07},
      {"variant": "GGAUCUUCUCGAUCUAACAAAAAAGACAAAUCUGCCACAAAGCUUGAGAGCAUCUUCGGAUGCAGAGGCGGCAGCCUUCGGUGGCGCGAUAGCGCCAAUGUUCUCAACUAUGACACGCAAAACGUGUGCUCCGUUGAAUGGAGGUUAUCAUG", "polymerase ribozyme fitness (log ratio)": -0.905},
      {"variant": "GGAUCUUCUCGAUCUAACAAAGAAGACAAAUCUGCCACAAAGCUUGAGAGCAGGCUCGGAUGCAGAGGCGGCGGCCUUCGGUGGCGCGAUCGCGCCAACGUUCUUAACUAUGACAUGCAAAACGCGGGCUCCGUCGAAUGGAGUUUAUCAUG", "polymerase ribozyme fitness (log ratio)": "≤ -4.2"},
      {"variant": "GGAUCUUCCCGAUCUAACAAUAAAGACCAAUCUGCCACAAAGCUUGAGACCAUCUUCGGAUGCAGAGGCGGCAGCCUUCGGUGGCGCGAUAGCUCCAACGUCCUCAACUAUGACACGCAAAACGCGUGCUCCGUUGAAUGGAGUUUAUCAUG", "polymerase ribozyme fitness (log ratio)": -4.16},
      {"variant": "GGAUCUUCUCGAUCUAACAAAUAAGACAAAUCUGCCACAAAGCUUGAGAGCAUCUUCGGAUGCAGAGGCGGCAGCCUUCGGUGGCGAGAUAGCGCCAAUGUUGUCAACUAUGACACGCAAAACGCGUGCUCCGUUGAAUGGCGUUUAUCAUG", "polymerase ribozyme fitness (log ratio)": "≤ -4.2"},
      {"variant": "GGAUCUUCUAGAUCUAACAAAAAAGACAAAUCUGCCACAAAGCUUGAGAGCAUCUUCGGAUGCAGAGGCGGCAGCCUUCGGUCGCGCGAUAGCGCCAACGUUCUCAACUAUGACACGCAAAACGCGUGCUCCGUUGAAUGGAGUUUAUCAUG", "polymerase ribozyme fitness (log ratio)": -3.94},
      {"variant": "GGAUCUUCUCGAUCUAACAAAAAAGACAAAUCUGCCACAAAGCUUGAGAGCAUCUUCGGAUGCAGAGGCGGCAGCCUUCGGUGGCGCGAUAGCACCAACGUUCUCAACUAUGACAUGCAAAUCGCGUGCUCCGUUGAAUGGAGUUUAUCAUG", "polymerase ribozyme fitness (log ratio)": -0.787},
      {"variant": "GGAUCUUCUCGAUCUAACACAAAAGACAAAUCUGCCACAAAGCUUGAGAGCAUCUUCGGAUGCAGAGGCGGCAGCCUUCGGUGGCGCGAUAGCGCCAACGUUCUCAACUAUGACACGCAAAACGCGUGCUCCGUUGAAUGGAGUUUAUGAUG", "polymerase ribozyme fitness (log ratio)": -2.96},
      {"variant": "GGAUCUUCUCGAUCUAACAAAAACGACAAAUCUCACACAAAGCUUGAGAGCAUCUUCGGAUGCAGAGGCGGCAGCCUUCGGUGGCGCGAUAGCGCCAACGUUCUCAACUAUGACACGCAAAGCGCGUGCUCCGAUGAAUGGACUUUAUCAUG", "polymerase ribozyme fitness (log ratio)": -4.11},
      {"variant": "GGAUCUUCUCGAUCUAACAAAAAAGACAAAUCUGCCACAAAGCUUGAGAUCAUCUUCGGAUGCAGAGGCGGCAACCUUCGGUGGCGCGAUAGUGCCAACGUUCUCCACUAUGACACGCAAAACGCGUGCUCCGUUGAAUGGAGUUUACCAUG", "polymerase ribozyme fitness (log ratio)": "≤ -4.2"}
    ]}
  ]
}
